Values joined by “and” are separate entries in the source; they are usually repeats but may differ in a detail not shown here. Equal values may be shown once.
Legend:
[1] = biological target: human aminopeptidase N (hAPN) ectodomain, residues 62-963, wild type (UniProt P15144); assay: SPR; settings: parent: 3.71 ± 0.05 µM
[2] = biological target: porcine aminopeptidase N (pAPN) ectodomain, residues 58-961, wild type (UniProt P15145); assay: SPR; settings: parent: 44.24 ± 2.21 µM
[3] = biological target: human aminopeptidase N ectodomain, wild type (human) (UniProt P15144); assay: SPR; BIAcore X-100, room temperature; hAPN/pAPN WT or mutant immobilised on CM5 chips via amine coupling; serially diluted PDCoV RBD WT or mutant flowed over in HEPES buffer (0.01 M HEPES, 0.15 M NaCl, 0.5% surfactant P20, 3 mM EDTA, pH 7.4); steady-state affinity model; each of two experiments listed
Sequence of human aminopeptidase N ectodomain, wild type (human) (P15144 62-963): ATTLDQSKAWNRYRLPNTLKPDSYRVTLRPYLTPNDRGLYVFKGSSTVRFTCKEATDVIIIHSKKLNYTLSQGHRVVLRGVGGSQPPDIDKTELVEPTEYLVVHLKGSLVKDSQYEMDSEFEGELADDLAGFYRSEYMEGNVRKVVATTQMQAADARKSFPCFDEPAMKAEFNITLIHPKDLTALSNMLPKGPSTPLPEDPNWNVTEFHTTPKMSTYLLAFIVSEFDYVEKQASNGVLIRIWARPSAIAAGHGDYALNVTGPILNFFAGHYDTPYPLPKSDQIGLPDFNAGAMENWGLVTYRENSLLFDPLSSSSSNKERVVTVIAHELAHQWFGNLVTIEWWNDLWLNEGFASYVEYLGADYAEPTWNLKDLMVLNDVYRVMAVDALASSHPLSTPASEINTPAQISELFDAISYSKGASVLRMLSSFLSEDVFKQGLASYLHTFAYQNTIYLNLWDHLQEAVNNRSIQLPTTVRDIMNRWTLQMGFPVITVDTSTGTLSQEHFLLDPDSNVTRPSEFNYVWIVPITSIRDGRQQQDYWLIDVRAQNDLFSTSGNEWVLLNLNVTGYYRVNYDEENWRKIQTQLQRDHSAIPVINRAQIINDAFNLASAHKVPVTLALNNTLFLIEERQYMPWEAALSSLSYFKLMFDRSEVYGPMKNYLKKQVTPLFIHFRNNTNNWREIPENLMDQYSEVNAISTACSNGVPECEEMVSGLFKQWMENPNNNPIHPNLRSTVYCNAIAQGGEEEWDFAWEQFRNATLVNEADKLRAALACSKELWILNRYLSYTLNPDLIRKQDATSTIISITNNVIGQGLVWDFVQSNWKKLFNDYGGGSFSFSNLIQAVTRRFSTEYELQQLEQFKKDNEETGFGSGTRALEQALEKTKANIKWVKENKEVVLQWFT

[4] = biological target: porcine aminopeptidase N ectodomain, wild type (pig) (UniProt P15145); assay: SPR; hAPN/pAPN WT or mutant immobilised on CM5 chips by amine coupling; serially diluted PDCoV RBD WT or mutant flowed over; BIAcore X-100, room temperature; 0.01 M HEPES, 0.15 M NaCl, 0.5% surfactant P20, 3 mM EDTA, pH 7.4; steady-state affinity model
Sequence of porcine aminopeptidase N ectodomain, wild type (pig) (P15145 58-961): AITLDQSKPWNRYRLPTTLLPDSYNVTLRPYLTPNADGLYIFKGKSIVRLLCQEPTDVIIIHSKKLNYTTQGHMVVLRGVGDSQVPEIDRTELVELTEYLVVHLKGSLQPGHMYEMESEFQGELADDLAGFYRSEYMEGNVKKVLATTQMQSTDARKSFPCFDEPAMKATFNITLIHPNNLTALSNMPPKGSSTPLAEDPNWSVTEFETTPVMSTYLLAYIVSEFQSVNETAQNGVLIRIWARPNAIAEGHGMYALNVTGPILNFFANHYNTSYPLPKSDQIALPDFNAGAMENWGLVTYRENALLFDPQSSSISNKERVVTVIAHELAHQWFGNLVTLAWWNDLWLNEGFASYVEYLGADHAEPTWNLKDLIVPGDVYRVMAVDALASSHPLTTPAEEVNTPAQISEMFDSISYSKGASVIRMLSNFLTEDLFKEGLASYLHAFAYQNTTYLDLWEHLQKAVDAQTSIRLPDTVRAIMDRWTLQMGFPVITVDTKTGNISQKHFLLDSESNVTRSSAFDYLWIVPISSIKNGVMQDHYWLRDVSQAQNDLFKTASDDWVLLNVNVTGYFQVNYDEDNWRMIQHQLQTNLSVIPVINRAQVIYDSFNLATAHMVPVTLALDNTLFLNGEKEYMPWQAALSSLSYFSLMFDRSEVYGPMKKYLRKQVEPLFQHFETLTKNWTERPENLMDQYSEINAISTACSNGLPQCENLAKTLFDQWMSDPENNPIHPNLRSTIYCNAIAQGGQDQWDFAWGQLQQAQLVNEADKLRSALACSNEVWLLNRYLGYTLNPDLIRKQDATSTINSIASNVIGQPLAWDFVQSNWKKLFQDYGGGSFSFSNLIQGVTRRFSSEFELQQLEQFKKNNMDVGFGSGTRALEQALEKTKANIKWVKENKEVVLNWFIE

[5] = biological target: human aminopeptidase N ectodomain, wild type (human) (UniProt P15144); assay: as above
[6] = biological target: porcine aminopeptidase N ectodomain, wild type (pig) (UniProt P15145); assay: SPR; BIAcore X-100, room temperature; hAPN/pAPN WT or mutant immobilised on CM5 chips via amine coupling; serially diluted PDCoV RBD WT or mutant flowed over in HEPES buffer (0.01 M HEPES, 0.15 M NaCl, 0.5% surfactant P20, 3 mM EDTA, pH 7.4); steady-state affinity model; each of two experiments listed
[7] = biological target: hAPN ectodomain Y316A mutant (human) (UniProt P15144); assay: SPR; BIAcore X-100, room temperature; hAPN/pAPN WT or mutant immobilised on CM5 chips by amine coupling; serially diluted PDCoV RBD WT or mutant flowed over in HEPES buffer (0.01 M HEPES, 0.15 M NaCl, 0.5% surfactant P20, 3 mM EDTA, pH 7.4); steady-state affinity model
Sequence of hAPN ectodomain Y316A mutant (human) (P15144 62-963 Y316A): as the sequence (P15144 62-963) above, with Y255A counted along it

[8] = biological target: hAPN ectodomain E742A mutant (human) (UniProt P15144); assay: as above
Sequence of hAPN ectodomain E742A mutant (human) (P15144 62-963 E742A): as the sequence (P15144 62-963) above, with E681A counted along it

[9] = biological target: porcine aminopeptidase N (pAPN) ectodomain, residues 58-961, wild type (pig) (UniProt P15145); assay: as above
Sequence of porcine aminopeptidase N (pAPN) ectodomain, residues 58-961, wild type (pig) (P15145 58-961): as the sequence (P15145 58-961) above

[10] = biological target: hAPN ectodomain K379A mutant (human) (UniProt P15144); assay: as above
Sequence of hAPN ectodomain K379A mutant (human) (P15144 62-963 K379A): as the sequence (P15144 62-963) above, with K318A counted along it

[11] = biological target: human aminopeptidase N (hAPN) ectodomain, residues 62-963, wild type (UniProt P15144); assay: as above
[12] = biological target: human aminopeptidase N ectodomain Y316A (human) (UniProt P15144); assay: SPR; hAPN/pAPN WT or mutant immobilised on CM5 chips by amine coupling; serially diluted PDCoV RBD WT or mutant flowed over; BIAcore X-100, room temperature; 0.01 M HEPES, 0.15 M NaCl, 0.5% surfactant P20, 3 mM EDTA, pH 7.4; steady-state affinity model
Sequence of human aminopeptidase N ectodomain Y316A (human) (P15144 62-963 Y316A): as the sequence (P15144 62-963) above, with Y255A counted along it

[13] = biological target: human aminopeptidase N ectodomain H789A (human) (UniProt P15144); assay: as above
Sequence of human aminopeptidase N ectodomain H789A (human) (P15144 62-963 H789A): as the sequence (P15144 62-963) above, with H728A counted along it

[14] = biological target: human aminopeptidase N ectodomain W429A (human) (UniProt P15144); assay: as above
Sequence of human aminopeptidase N ectodomain W429A (human) (P15144 62-963 W429A): as the sequence (P15144 62-963) above, with W368A counted along it

[15] = biological target: human aminopeptidase N ectodomain E742A (human) (UniProt P15144); assay: as above
Sequence of human aminopeptidase N ectodomain E742A (human) (P15144 62-963 E742A): as the sequence (P15144 62-963) above, with E681A counted along it

[16] = biological target: human aminopeptidase N ectodomain E426A (human) (UniProt P15144); assay: as above
Sequence of human aminopeptidase N ectodomain E426A (human) (P15144 62-963 E426A): as the sequence (P15144 62-963) above, with E365A counted along it

[17] = biological target: human aminopeptidase N ectodomain E745A (human) (UniProt P15144); assay: as above
Sequence of human aminopeptidase N ectodomain E745A (human) (P15144 62-963 E745A): as the sequence (P15144 62-963) above, with E684A counted along it

[18] = biological target: porcine aminopeptidase N ectodomain E421A (pig) (UniProt P15145); assay: as above
Sequence of porcine aminopeptidase N ectodomain E421A (pig) (P15145 58-961 E421A): as the sequence (P15145 58-961) above, with E364A counted along it

[19] = biological target: porcine aminopeptidase N ectodomain W424A (pig) (UniProt P15145); assay: as above
Sequence of porcine aminopeptidase N ectodomain W424A (pig) (P15145 58-961 W424A): as the sequence (P15145 58-961) above, with W367A counted along it

[20] = biological target: human aminopeptidase N ectodomain K379A (human) (UniProt P15144); assay: as above
Sequence of human aminopeptidase N ectodomain K379A (human) (P15144 62-963 K379A): as the sequence (P15144 62-963) above, with K318A counted along it

[21] = biological target: porcine aminopeptidase N ectodomain, wild type (pig) (UniProt P15145); assay: as above; remark: listed apart in the source
[22] = biological target: human aminopeptidase N ectodomain, wild type (human) (UniProt P15144); assay: as above; remark: listed apart in the source

Sequence of human aminopeptidase N (hAPN) ectodomain, residues 62-963, wild type (P15144 62-963): as the sequence (P15144 62-963) above
Sequence of porcine aminopeptidase N (pAPN) ectodomain, residues 58-961, wild type (P15145 58-961): as the sequence (P15145 58-961) above

## PDCoV spike (S) protein receptor binding domain (RBD), residues 300-419, wild type F318A
[1]
  Kd: 133 µM
[2]
  Kd: 664 µM

## PDCoV RBD W396A (domain or fragment)
[3]
  Kd: 88000 µM

## PDCoV spike protein receptor binding domain N397A (domain or fragment)
[4]
  Kd: 34 µM and 53.8 µM
[5]
  Kd: 3.35 µM and 3.62 µM

## PDCoV spike (S) protein receptor binding domain (RBD), residues 300-419, wild type E320A
[1]
  Kd: 161 µM
[2]
  Kd: 249 µM

## PDCoV RBD F318A (domain or fragment)
[6]
  Kd: 817 µM and 511 µM
[3]
  Kd: 112 µM and 154 µM

## PDCoV RBD Y398A (domain or fragment)
[3]
  Kd: 309 µM and 730 µM

## PDCoV spike (S) protein receptor binding domain (RBD), residues 300-419, wild type (domain or fragment)
[7]
  fold decrease in affinity against wild-type hAPN: 10 fold
[8]
  fold decrease in affinity against wild-type hAPN: 4 fold
[9]
  fold lower affinity than to hAPN: 10 fold
[10]
  Kd: 100 µM
[11]
  Kd: 1 µM

## PDCoV spike protein receptor binding domain, wild type (domain or fragment)
[12]
  Kd: 35.7 µM and 38.5 µM
[13]
  Kd: 6.47 µM and 6.03 µM
[14]
  Kd: 158 µM and 97 µM
[15]
  Kd: 14.3 µM and 13.2 µM
[16]
  Kd: 305 µM and 362 µM
[17]
  Kd: 3.13 µM and 3 µM
[18]
  Kd: 103 µM and 146 µM
[19]
  Kd: 113 µM and 119 µM
[20]
  Kd: 371 µM and 516 µM
[4]
  Kd: 42 µM and 46.5 µM
[5]
  Kd: 3.76 µM and 3.66 µM

## PDCoV spike protein receptor binding domain W396A (domain or fragment)
[21]
  Kd: > 1000 µM
[22]
  Kd: > 1000 µM
[5]
  Kd: 88000 µM

## PDCoV spike protein receptor binding domain R322A (domain or fragment)
[4]
  Kd: 454 µM and 553 µM
[5]
  Kd: 256 µM and 335 µM

## PDCoV spike (S) protein receptor binding domain (RBD), residues 300-419, wild type R357A
[1]
  Kd: 216 µM

## PDCoV spike protein receptor binding domain F318A (domain or fragment)
[4]
  Kd: 817 µM and 511 µM
[5]
  Kd: 112 µM and 154 µM

## PDCoV RBD E320A (domain or fragment)
[6]
  Kd: 279 µM and 220 µM
[3]
  Kd: 135 µM and 188 µM

## PDCoV spike (S) protein receptor binding domain (RBD), residues 300-419, wild type Y398A
[1]
  Kd: 520 µM

## PDCoV spike (S) protein receptor binding domain (RBD), residues 300-419, wild type N397A
[1]
  Kd: 3.49 µM

## PDCoV RBD N397A (domain or fragment)
[6]
  Kd: 34 µM and 53.8 µM
[3]
  Kd: 3.35 µM and 3.62 µM

## PDCoV spike protein receptor binding domain E320A (domain or fragment)
[4]
  Kd: 279 µM and 220 µM
[5]
  Kd: 135 µM and 188 µM

## PDCoV RBD R322A (domain or fragment)
[6]
  Kd: 454 µM and 553 µM
[3]
  Kd: 256 µM and 335 µM

## PDCoV spike protein receptor binding domain R357A (domain or fragment)
[4]
  Kd: 27.7 µM and 60.5 µM
[5]
  Kd: 199 µM and 232 µM

## PDCoV spike (S) protein receptor binding domain (RBD), residues 300-419, wild type R322A
[1]
  Kd: 295 µM
[2]
  Kd: 504 µM

## PDCoV RBD R357A (domain or fragment)
[6]
  Kd: 27.7 µM and 60.5 µM
[3]
  Kd: 199 µM and 232 µM

## PDCoV spike protein receptor binding domain Y398A (domain or fragment)
[21]
  Kd: > 1000 µM
[5]
  Kd: 309 µM and 730 µM
